Biological target: T1, cMyc-tagged 65-kDa latent heparanase (human, UniProt Q9Y251 36-543)
T1 construct: heparanase, human, 65-kDa latent (unprocessed) form; also called cMyc-latent heparanase; latent cMyc-heparanase; source: medium conditioned by heparanase infected CHO cells, purified (heparin column)
T1 sequence (looked up): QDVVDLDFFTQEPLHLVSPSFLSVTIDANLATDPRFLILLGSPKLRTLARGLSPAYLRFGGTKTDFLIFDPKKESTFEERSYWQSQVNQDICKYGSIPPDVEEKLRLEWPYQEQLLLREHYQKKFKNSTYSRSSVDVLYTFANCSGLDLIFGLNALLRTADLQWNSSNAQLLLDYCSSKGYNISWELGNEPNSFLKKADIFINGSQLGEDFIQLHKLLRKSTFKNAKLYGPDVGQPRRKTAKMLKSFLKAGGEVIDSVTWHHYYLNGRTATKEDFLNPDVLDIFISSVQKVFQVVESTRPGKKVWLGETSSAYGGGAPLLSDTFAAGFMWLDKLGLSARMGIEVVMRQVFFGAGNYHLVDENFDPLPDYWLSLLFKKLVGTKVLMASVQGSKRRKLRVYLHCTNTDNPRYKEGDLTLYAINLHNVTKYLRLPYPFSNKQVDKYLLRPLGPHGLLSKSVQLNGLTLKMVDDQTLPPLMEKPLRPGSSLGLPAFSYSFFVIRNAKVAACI
Test: ELISA; competition: cMyc latent heparanase as coating layer; analyte resistin (200 ng/ml) preincubated 30 min at RT with the competitor (active heparanase, or leptin as control); bound resistin detected by anti resistin antibodies
Details: both partners purified

B1: human recombinant resistin expressed in HEK 293 (natural protein, UniProt Q9HD89 19-108, looked up)
chain: KTLCSMEEAINERIQEVAGSLIFRAISSIGLECQSVTSRGDLATCPRGFAVTGCTCGSACGSWDVRAETTCHCQCAGMDWTGARCCRVQP
notes: resistin, human, recombinant; Runs as a 12 kDa band under reducing conditions; also called RETN; source: HEK 293, pure preparation, gift from Serono
- binding result: binds
